The numbers were not newly measured in article PMC8634938, which cites them from elsewhere.

Usually pKd stands for the Kd on a negative log10 scale, so that one unit is a factor of ten.

For data set [1], the target named is IL-22R (Homo sapiens) (UniProt Q8N6P7).
Data set [2] has as its target IL-22BP (Homo sapiens) (UniProt Q969J5).

pKd: −log10 of the molar value.

Chain of UniProt Q969J5 (Q969J5 22-263): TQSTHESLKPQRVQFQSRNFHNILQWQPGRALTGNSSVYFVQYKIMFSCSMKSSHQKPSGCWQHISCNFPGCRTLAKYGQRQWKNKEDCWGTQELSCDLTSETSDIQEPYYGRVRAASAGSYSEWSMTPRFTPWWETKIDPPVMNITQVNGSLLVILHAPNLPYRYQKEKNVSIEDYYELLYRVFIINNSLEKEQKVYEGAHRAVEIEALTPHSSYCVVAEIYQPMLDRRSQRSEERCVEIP
Chain of UniProt Q8N6P7 (Q8N6P7 16-228): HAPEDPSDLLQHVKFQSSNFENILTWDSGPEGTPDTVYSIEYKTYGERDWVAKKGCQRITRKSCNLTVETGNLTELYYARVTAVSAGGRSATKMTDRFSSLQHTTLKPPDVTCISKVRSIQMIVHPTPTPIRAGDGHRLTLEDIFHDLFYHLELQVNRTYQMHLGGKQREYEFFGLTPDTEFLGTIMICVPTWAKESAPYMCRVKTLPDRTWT

For the substance IL-22 (from UniProt Q9GZX6), the negative logarithm of the Kd (pKd) in data set [1] was 7.70; in data set [2] it was 12.00.
